This note sets out measurements from article PMC4622731 (mAbs, 2015).

Assay [1] addresses human IL-1α (human) (UniProt P01583).
In assay [2] the target is cynomolgus IL-1α (Macaca fascicularis) (UniProt P79340).
The target of assay [3] is cynomolgus IL-1β (Macaca fascicularis) (UniProt P79182).
The target of assay [4] is human IL-1β (human) (UniProt P01584).
Assay [5] concerns the target human IL-1α (human) (UniProt P01583). This is another data set of the same source.
Assay [6] deals with cynomolgus IL-1α (Macaca fascicularis) (UniProt P79340). This is another data set of the same source.
For assay [7], the target named is cynomolgus IL-1β (Macaca fascicularis) (UniProt P79182). The source holds these as a separate data set.
For assay [8], the target named is human IL-1β (human) (UniProt P01584). The source holds these as a separate data set.
Assay [9] deals with biotinylated human IL-1β (Homo sapiens) (UniProt P01584). Description: ELISA; mAb or DVD-Ig (2 μg/mL) captured by anti-human Fc antibody coated on the plate; biotinylated human IL-1α or IL-1β titrated 1000 ng/mL to 0.597 pg/mL, 1 hour at 25°C; peroxidase-labeled streptavidin. For orientation: An ELISA detects its analyte on a solid surface through an enzyme-linked reagent.
Assay [10] deals with biotinylated human IL-1α (Homo sapiens) (UniProt P01583). Described as above.
Assay [11] addresses human IL-1α (human) (UniProt P01583). Description: SPR; Biacore 3000; mAb or DVD-Ig captured by goat anti-human IgG Fc on a CM5 chip; IL-1 10-200 nM flowed at 25 μL/min; HBS-EP (10 mM HEPES pH 7.4, 150 mM NaCl, 3 mM EDTA, 0.005% P20), 25°C; 1:1 Langmuir global fit, KD = koff/kon. In general terms: Surface plasmon resonance follows binding to a sensor surface in real time, without labels.

The target in assay [12] is cynomolgus IL-1α (Macaca fascicularis) (UniProt P79340). The assay is described as above.
The target of assay [13] is cynomolgus IL-1β (Macaca fascicularis) (UniProt P79182). The description is as above.
The target of assay [14] is human IL-1β (human) (UniProt P01584). The description is as above.
The target of assay [15] is T1, human IL-1β (Homo sapiens, UniProt P01584).
T1 construct: interleukin-1 beta, human, recombinant; also called recombinant human IL-1β; source: recombinant, AbbVie
The description is as above. The settings on record: both partners purified.

Assay [16] has as its target T1, human IL-1β. Description: cell-based or functional assay.

human IL-1α (human), sequence (P01583 whole entry): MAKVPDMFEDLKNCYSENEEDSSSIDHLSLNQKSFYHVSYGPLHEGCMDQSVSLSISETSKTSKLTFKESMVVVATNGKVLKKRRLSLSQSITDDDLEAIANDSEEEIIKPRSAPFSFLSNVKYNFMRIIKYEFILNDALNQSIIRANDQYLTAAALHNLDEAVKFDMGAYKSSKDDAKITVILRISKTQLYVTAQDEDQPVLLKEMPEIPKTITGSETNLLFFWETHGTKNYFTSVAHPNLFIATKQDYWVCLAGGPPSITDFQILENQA
human IL-1β (human), sequence (P01584 whole entry): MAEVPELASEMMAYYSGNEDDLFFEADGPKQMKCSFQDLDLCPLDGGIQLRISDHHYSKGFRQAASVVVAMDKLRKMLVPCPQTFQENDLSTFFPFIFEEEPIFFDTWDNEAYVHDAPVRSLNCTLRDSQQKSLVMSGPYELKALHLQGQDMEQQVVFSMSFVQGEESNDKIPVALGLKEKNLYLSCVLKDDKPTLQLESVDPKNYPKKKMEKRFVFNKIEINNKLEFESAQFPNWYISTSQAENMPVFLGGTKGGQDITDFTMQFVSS
cynomolgus IL-1α (Macaca fascicularis), sequence (P79340 whole entry): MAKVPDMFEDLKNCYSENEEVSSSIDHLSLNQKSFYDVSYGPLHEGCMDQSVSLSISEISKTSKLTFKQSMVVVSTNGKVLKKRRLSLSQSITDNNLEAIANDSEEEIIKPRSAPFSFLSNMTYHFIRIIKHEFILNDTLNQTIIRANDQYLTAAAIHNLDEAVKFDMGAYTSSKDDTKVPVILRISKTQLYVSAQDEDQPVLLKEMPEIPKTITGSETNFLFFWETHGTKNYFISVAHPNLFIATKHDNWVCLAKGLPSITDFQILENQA
cynomolgus IL-1β (Macaca fascicularis), sequence (P79182 whole entry): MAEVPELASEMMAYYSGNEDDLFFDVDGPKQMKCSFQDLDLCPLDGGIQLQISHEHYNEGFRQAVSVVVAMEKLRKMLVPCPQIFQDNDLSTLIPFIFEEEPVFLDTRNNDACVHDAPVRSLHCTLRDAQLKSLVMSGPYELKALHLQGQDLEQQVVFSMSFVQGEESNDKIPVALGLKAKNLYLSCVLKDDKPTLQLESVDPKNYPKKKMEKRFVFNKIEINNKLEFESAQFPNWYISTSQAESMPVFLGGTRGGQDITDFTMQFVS
T1 sequence (P01584 whole entry): as the sequence (P01584 whole entry) above

As usually defined, the EC50 is the concentration at which the effect is half-maximal. What is called Kd is a measure of binding affinity in units of concentration. Higher therefore signals weaker binding. In turn, ABT-981 (bispecific antibody) registered a Neutralization potency IC50, MRC-5 cell bioassay: IL-8 release on 3 pM human IL-1α in the assay with human IL-1α (human) [1] of 16.2 pM. Besides, in assay [2], the Neutralization potency IC50, MRC-5 cell bioassay: IL-8 release on 3 pM cynomolgus IL-1α is 955 pM. The molecule also yielded a Neutralization potency IC50, MRC-5 cell bioassay: IL-8 release on 3 pM cynomolgus IL-1β in assay [3] of 8.4 pM. The molecule further gave a Neutralization potency IC50, MRC-5 cell bioassay: IL-8 release on 3 pM human IL-1β with human IL-1β (human) [4] of 16 pM. In the assay with human IL-1α (human) [5], the ED50, Average: dose of ABT-981 inhibiting mouse IL-6 induced by 30 ng human IL-1α in C57/BL6 mice was 0.005 mg/kg; the ED50, Expt #1: dose of ABT-981 inhibiting mouse IL-6 induced by 30 ng human IL-1α in C57/BL6 mice was determined as 0.007 mg/kg; the ED50, Expt #2: dose of ABT-981 inhibiting mouse IL-6 induced by 30 ng human IL-1α in C57/BL6 mice turned out to be 0.002 mg/kg; the ED80, Average: dose of ABT-981 inhibiting mouse IL-6 induced by 30 ng human IL-1α in C57/BL6 mice turned out to be 0.104 mg/kg. In the assay with human IL-1α (human) [5], this molecule showed an ED80, Expt #1: dose of ABT-981 inhibiting mouse IL-6 induced by 30 ng human IL-1α in C57/BL6 mice of 0.17 mg/kg and an ED80, Expt #2: dose of ABT-981 inhibiting mouse IL-6 induced by 30 ng human IL-1α in C57/BL6 mice of 0.04 mg/kg. In assay [6], this molecule returned an ED50, Average: dose of ABT-981 inhibiting mouse IL-6 induced by 30 ng cynomolgus IL-1α in C57/BL6 mice of 6.5 mg/kg; an ED50, Expt #1: dose of ABT-981 inhibiting mouse IL-6 induced by 30 ng cynomolgus IL-1α in C57/BL6 mice of 5.2 mg/kg; an ED50, Expt #2: dose of ABT-981 inhibiting mouse IL-6 induced by 30 ng cynomolgus IL-1α in C57/BL6 mice of 7.7 mg/kg; an ED80, Average: dose of ABT-981 inhibiting mouse IL-6 induced by 30 ng cynomolgus IL-1α in C57/BL6 mice of 18.2 mg/kg. In [6], this molecule registered an ED80, Expt #1: dose of ABT-981 inhibiting mouse IL-6 induced by 30 ng cynomolgus IL-1α in C57/BL6 mice of 16.1 mg/kg and an ED80, Expt #2: dose of ABT-981 inhibiting mouse IL-6 induced by 30 ng cynomolgus IL-1α in C57/BL6 mice of 20.2 mg/kg. Also, in assay [7], the ED50, Average: dose of ABT-981 inhibiting mouse IL-6 induced by 30 ng cynomolgus IL-1β in C57/BL6 mice came out at 0.004 mg/kg; the ED50, Expt #1: dose of ABT-981 inhibiting mouse IL-6 induced by 30 ng cynomolgus IL-1β in C57/BL6 mice is 0.002 mg/kg; the ED50, Expt #2: dose of ABT-981 inhibiting mouse IL-6 induced by 30 ng cynomolgus IL-1β in C57/BL6 mice was 0.006 mg/kg; the ED80, Average: dose of ABT-981 inhibiting mouse IL-6 induced by 30 ng cynomolgus IL-1β in C57/BL6 mice stood at 0.094 mg/kg. Moreover, in assay [7], the ED80, Expt #1: dose of ABT-981 inhibiting mouse IL-6 induced by 30 ng cynomolgus IL-1β in C57/BL6 mice came out at 0.098 mg/kg and the ED80, Expt #2: dose of ABT-981 inhibiting mouse IL-6 induced by 30 ng cynomolgus IL-1β in C57/BL6 mice is 0.11 mg/kg. In the assay with human IL-1β (human) [8], the ED50, Average: dose of ABT-981 inhibiting mouse IL-6 induced by 30 ng human IL-1β in C57/BL6 mice is 0.016 mg/kg; the ED50, Expt #1: dose of ABT-981 inhibiting mouse IL-6 induced by 30 ng human IL-1β in C57/BL6 mice worked out at 0.02 mg/kg; the ED50, Expt #2: dose of ABT-981 inhibiting mouse IL-6 induced by 30 ng human IL-1β in C57/BL6 mice is 0.012 mg/kg; the ED80, Average: dose of ABT-981 inhibiting mouse IL-6 induced by 30 ng human IL-1β in C57/BL6 mice came out at 0.28 mg/kg. In the assay with human IL-1β (human) [8], this molecule returned an ED80, Expt #1: dose of ABT-981 inhibiting mouse IL-6 induced by 30 ng human IL-1β in C57/BL6 mice of 0.27 mg/kg and an ED80, Expt #2: dose of ABT-981 inhibiting mouse IL-6 induced by 30 ng human IL-1β in C57/BL6 mice of 0.32 mg/kg. The same molecule gave an EC50 in assay [9] of 0.0075 nM. The molecule also had an EC50 in [10] of 0.0064 nM. Besides, the equilibrium dissociation constant (Kd) in the assay with human IL-1α (human) [11] turned out to be 0.0076 nM. This molecule showed a dissociation constant Kd in assay [12] of 0.411 nM. Besides, the Kd in [13] worked out at 0.0153 nM. Also, the Kd in the assay with human IL-1β (human) [14] was found to be 0.021 nM.

B1: humanized SK48-E26 mAb (antibody, V domains shown)
VH: EVQLVESGGGVVQPGRSLRLSCSSSGFIFSSYDMSWVRQAPGKGLEWVAYISSGGGGTYYPDTVKGRFTISRDNSKNTLFLQMDSLRPEDTGVYFCARGGVTKGYFDVWGQGTPVTVSS
VL: DIQMTQSPSSLSASVGDRVTITCRASGNIHNYLTWYQQTPGKAPKLLIYNAKTLADGVPSRFSGSGSGTDYTFTISSLQPEDIATYYCQHFWSIPYTFGQGTKLQIT
As for B1, the Kd with human IL-1β [15] is 0.242 nM. In addition, in the assay with human IL-1β [16], the “Neutralization potency IC50, MRC-5 cell bioassay: IL-8 release on 3 pM human IL-1β” value was 400 pM.
